Assay: yeast display, Sf9 membrane polyspecificity reagent, FACS + sequencing; frameworks hold sequencing errors
Method in brief: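 After 36–48 hours of galactose induction, yeast (Saccharomyces cerevisiae BJ5465) displaying a synthetic nanobody library were stained at 4 °C for 1 hour with 10% biotinylated, detergent-solubilized Sf9 membrane reagent. Streptavidin microbeads enriched the stained cells before FACS sorting into low and high (top ~1%) gates on anti-HA and streptavidin fluorescence. Each clone's polyreactivity label reflects its gate of origin.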

Sequence	polyreactivity (PSR sort gate)
QVQLVESGGGLVQAGGSLRLSCAASGFTFGPNTMGWYRQAPGKERELVAAISARGGRTYYADSVKGRFTISRDNAKNTVYLQMNSLKPEDTAVYYCAAPGYVRTGVTYGGYYWGQGTQVTVSS	high polyreactivity
QVQLVESGGGLVQEGGSLRLSCADSGFIFRRYAMGWYIQAPGKERELVAAIRSDGSTNYADSVKGRFTISRDNAKNTVYLQMNSLKPEDTAVYYCAATYYSYTWFSQYYYWGQGTQVTVSS	high polyreactivity
QVQLVESVGGLVQAGGSLRLSCAASGRTFYHYAMGWYRQAPGKERELVAAITWSGGSTYYADSVKGRFTISRDNAKNTVYLQMNSLKPEDTAVYYCAAAYRPWRGGYYPVGYYYWGQGTQVTVSS	high polyreactivity
QVQLVESGGGLVQAGGSLRLSCAASGSIFPRNTMGWYRQAPGKEREFVAAITTTGSRTYYADSVKGRFTISRDNAKNTVYLQMNSLKPEDTAVYYCAATRRWYPTKLYGYWGQGTQVTVSS	high polyreactivity
QVQLVESGGGLVQAGGSLRLSCAASGYTFVGYAMGWYRQAPGKERELVASISTGDSTYYADSVKGRFTISRDNAKNTVYLQMNSLKPEDTAVYYCAADSWYFRGMDYWGQGTQVTVSS	low polyreactivity
QVQLVESGGGLVQAGGSLRLSCAASGSIFYRNAMGWYRQAPGKERELVAAITWSGVNTYYADSVKGRFTISRDNAKNTVYLQMNSLKPEDTAVYYCAVPSRYWLNRGFDYWGQGSQVTVSS	low polyreactivity
QVQLVESGGGLVQAGGSLRLSCAASGRTIADNAMGWYRQAPGKEREVVATISYSDSTTYYADSVKGRFTISRDNAKNTVYLQMNSLKPEDTAVYYCAAERLTHWGAFAAYDYWGQGTQVTVSS	low polyreactivity
QVQLVESGGGLVQAGGSLRLICADYGRTFKWYAMGWYRQAPGKERELVAVITGLGGSTYYADSVKGRFTISRDNAKNTVYLQMKSLKPEDTAVYYCAARGYSHVASRLYYYWGQGNQVTVSS	high polyreactivity
QLKLEESGGGLVQAGGSLRLSCAASGFIFSYNAMGWYRQAPGKERELDAAISSIGSGTYYADSVKGRFTISRDNAKYTVYLQMNSLKPEDTAVYYCAKYLRPRIGSRYYYWGQGTQVTVSS	high polyreactivity
QVQLVESGGGLVQAGGSLRLSCAASGRTFDVYAMGWYRQAPGKERELVAAISSSGGSTYYADSVKGRFTISRDNAKNTVYLQMNSLKPEDTAVYYCAVYYYSVYQYQAMDYWGQGTQVTVSS	low polyreactivity
QVQLVESGGGLVQAGGSLRLSCAASGRTFQLYAMGWYRQAPGKEMELVAAISTRGGSTYYADSVKGRFTISRDNAKNTVYLLMNSLKPEDTAVYYCAKDPSFTRGYKEGGGYDYWGQGTQVNVSS	high polyreactivity
QVQHVESGGGLVQAGGSLRLSCAASGSIFNTYTMGWYRQAPGKERELVAAISSGGSTYYADSVKGRFSISRDNAKNTVYLHMNSLKPEDTAVYYCAAYGHSFQIYDYWGQGTQVTVSS	low polyreactivity
QVQLVESGGGLVQAGGSLRLSCAASGSNFSHYAMGWYRQAPGKESELVAAISSGDSTNYADSVKGRFTISRDNAKNTVYLQMSSVKPEDTAVYYCAKTRRRLLTRYDYWGQGTQVSVSS	low polyreactivity
QVQLVESGGGLVQAGGSLRLSCAASGFIFGGYAMGWYRQAPGKERELVADISSGDSTKYADSVKGRFTISRDNAKNTVYLQMNSLKPEDTAVYYCAADAVVSTWTQFEYDYWGQGTQVTVSS	low polyreactivity
QVQLVESGGGLVQAGGSLRLSCAASGSIFRRYAIGWYRQAPGKERELVAAISGRGGSTYYADSVKGRFTISRDNAKNTVYLQMNSLKPEDTAVYYCNADRYYSHYSYYYWGQGTQVTVSS	high polyreactivity
QVQLVESGGGLVQAGGSLRLSCAASGSIFSLYAMGWYRQAPGKERELVAAISSSGTSTYYADSVKGRFTISRDNAKNTVYLQMNSLKPEDTAVYYCNAYRRRATYNGDYWGQGTQVTVSS	high polyreactivity
QVQLVESGGGLVQAGGSLRLICAASGSTFVPNAMGWYRQAPGKERELVAAITLSGVSTYYADSVKGRFTISRDNAKNTVYLQMNSLKPEETAVYYCAKDRPGWFHKYDYWGQGTQVTVSS	low polyreactivity
QVQLVESGGGLVQAGGSLRLSCAASGRTFCRYAMGWYRQAPGKERELVAAIRSGASTYYADSVKGRFTISPDNGKNTVYLQMKSLIPEDTAVYYCAADIARHLTGFAYYRLDYWGQGTQVTVSS	low polyreactivity
QVQLVESGGGLVQAGGSLRLSCAASGITLFGYTMGWYRQAPGKERELVAAIRRRGVSTYYADSVKGRFTISRDNAKNTVYLQMNSLKPEDTAVYYCAKSLKPYTDYDYWGQGTQVTVSS	high polyreactivity
QVQLLESGGGLVQAGGSLRLSCAASGYIILRNAMGWYRQAPGKERELVAAIRRTGGSTYYADSLKGRFTISRDNAKNTVYLLLNSLKPEDTAVYSCAKRSYTGFEYWGQGTQVTVSS	low polyreactivity
QVQLVESGGGLVQAGGSLRLSCAASGIIFPSYVMGWYRPAPGKERELVARISARGGRTYYADSVKGRFTISRDNAKNTVYLQMNSLKPEDTAVYYCAARWGITTWYDYWGQGTQVTVSS	high polyreactivity
QVQLVESGGGLVQAGGSLRLSCAASVRTFGFNVMGWYRQAPGKERELVAAISWSGGSTYYADSVKGRFTISRDNAKNTVYLQMNSLKPEVTAVYYCNKRYVHRYGYWGQGTQVTVSS	low polyreactivity

Sequence	polyreactivity (PSR sort gate)
QVQLVESGGGLVQAGGSLRLSCAASGSTFARNVMGWYRQAPGKERELVAAISWRGGRTYYADSVKGRFTISRDNAKNTVYLQMNSLKPEDTAVYYCNAVKRLKVTHSYEYGYWGQGTQVTVSS	high polyreactivity
QLQLVESGGGLVQAGGSLRLSCAASGSIIAAYAMGWYRQAPVKERELVAVITRSGGSTYYADSVKGRFTISRDNAKNTVYLQMNSLKPEDTAVYYCAAVGTRKMYYWGQGTQVTVSS	high polyreactivity
QVQLVGSGGGLVQAGGSLRLSCAASGRIFRYNAMGWYRQAPGKEREFVATISWRGGNTYYADSVKGRFTISRDNAKNTVYLQMNSLKPEDTAVYYCATRRLYSKSWYYYWGQGTQVTVSS	high polyreactivity
QDQLVESGGGLVQAGGSLRLSCAASGSTFSNYAMGWYRQAPGKERELVASISQSGGSTYYADSVKGRFTISRDNAKNTVYLQMNSLKPEDTAVYYCAADVAQVGYQVGVSEIYPGYEYWGQGTQVTVSS	low polyreactivity
QVQLVESGGGLVQAGGSLRLSCAASGYTFVIYAMGSYRQAPGKERELVAAITTIGGRTYYADSVKGRFTISRDNAKNNVYLQMNSLKPEDTAVYYCAADIRSNRLYDGGYWGEGTQVTVSS	low polyreactivity
QVQLVESGGGLVQAGGSLRLSCAASGFTFYWTAMGWYRQAPGKERELVAAINGGDSTNYADSVKGRFTISRDNAKNTVYLQMNSLKPEDTAVYYCAKYYYTSIVGYDSWGQGTQVTVSS	low polyreactivity
QVQLVESGGGLVQAGGSLRLSCAASGIIFWWYAMGWYRQAPGKERELVAAISGTGGSTYYADSVKGRFTISRDNAKNTVYFQMNSLKPEDTAVYYCAARGKSSSYYDYDYWGQGTQVTVSS	low polyreactivity
QVQLVESGGGLVQAGGSLRLSCAASGSTFSKYFMGWYSQAPGKERELVAAISGGDRTYYADSVKGRFTISRDNAKNTVYLQMNSLKTEVTAVYDCAAEVLKTRWSYDYWGQGTQVTVSS	high polyreactivity
QVQLVESGGGLVQAGGSLRLSCAASGNTFRWYVMGWYRQAPGKERELVAAITSSGSTTYYADSVKGRFTISRDNAKNTVYLQLNSLKPEDTAVYYCAARNYGPYDYWGQGTQVTVSS	low polyreactivity
QVQLVESGGGLVQAGGSLRLSCAASGSTFAGNTMGWYRQAPGKERELVAAITWNGGRTRYADSVKGRFTISRDNAKNTVYLQMNSLKPEDTAVYYCNAGPWYENMDYWGQGTQVTVSS	high polyreactivity
QVQLVESGGGLVQAGGSLRLSCAASGSTFGMNAMGWYRQAPGKERELVAAIDSSGGTTYYADSVKGRFTISRDHAKNTVYLQMNSRKPEDTAVYYCAADDNYYTFGYWGQGSQVTVSS	high polyreactivity
QVQLVESGGGLVQAGGSLRLSCAASGSIFFYYAMGWYRQAPGKERELVAAITSSGDSTYYADSVKGRFTISRDNAKNTVYLQMNSLKPEDTAVYYCAALYIGYTGYYYWGQGTQVSVSS	low polyreactivity
QLQLVESGGGLVQAGGSLRLSCAASGSTFTFNAMGWYRQAPGKERELVATISRGGSTSYADSVKGRFTISRDNAKNTVYLQMNSLNPEDTAVYYCAAVLYPSIYGFAGGKTDYDYWGQGTQVTVSS	low polyreactivity
QVQLVESGGGLVQAGGSLRLSCAASGYTFYYAMGWYRQAPGKERELVAAISAGGGRTYYADSVKGRFTISRDNAKNTVYLQMNSLKPEDTAVYYCAGDYFYSQVAYVYWGQGTQLTVSS	high polyreactivity
QVQLVESGGGLVQAGGSLRLSCAASGFIFGDYAMGWYRPAPGKERELVAAITWSGDGTYYADSVKGRFTISRDNAKNTVYLQMNSLKPEDTAVYYCAADFSPRRYHNRSFGYWGQGTQVTVSS	low polyreactivity
QDQLVDSGGGLVQAGGSLRLICAASGYIIHDNAMGWYRQAPGKERELVAAINRGGSTHYADSVKGRFTISRDNAKNTVYLQMNSLKPEDTAVYYCAAKDGRSYYDRTPMDYWGQGTQVTVSS	low polyreactivity
QVQLVESGGGLVQAGGSLRLSCAASGSIFKTNAMGWYRQAPGKERELVAGISNGGSTNYADSVKGRFTISRDNAKNTVYLQMNSLKPEDTAVYYCAAPYTSQTIPDYVRYFIEYDYWGQGTQVTVSS	low polyreactivity
QVQLVESGGGFVQAGGSLRLSCAASGSTFLVYAMGWYRQAPGKERELVAVIDTGASTNYADSVKGRFTISRDNAKNTVYLQMNSLKPEDTAVYYCAAGFSYFTSVLSLDRYYYWGQGTQVTVSS	low polyreactivity
QVQLVESGGGLVQAGCSLRLSCAASGRTFAYYAMGWYRQAPGKERELVAAISSGGGSTYYADSVKGRFTISRDNAKNTVYLQMNSLKPEDTAVYYCAKERSYSRSGGTYYYWGQGTQVTVSS	high polyreactivity
QVQLVESVGGLVQAGGSLRLSCAASGSIFGRYVMGWYRQAPGKERELVAAITSGGTTNYADSVKGRFTISRDNAKHTVYLQMNSLKPEDTAVYSCNADYYSRIVGVRIYDYWGQGTQVTVSS	low polyreactivity
QVQLVESGGGLVQAGGSLRLSCAASGSIFRRYAMGWYRQAPGKESELVAAITWGGGRTYYADSVKGRFTISRDNAKNTVYLQMNSLKPEDTAVYYCNAERSVYASGKSYLYDYWGQGTQVTVSS	high polyreactivity

Source: the nanobody polyreactivity screen of Harvey et al. (2022)
